131 substances from the supplement of paper PMC11875167 can be followed below.

This series is described as follows: observed amide hydrogen exchange rate constant kobs (stretched exponential fit, FD-normalized) (s^-1); higher = faster H/D exchange (less protection). The note with it: pH 3 (pH read); temperature: 20 °C; D2O: 88%. A digest of the protocol: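 Exchange was started by placing Jurkat tryptic peptides in 88% D2O at pHread 3 and 20 °C, and was stopped with 0.23% formic acid at 13 times from 18 to 93,600 s. HDExaminer processed MS1 uptake from a Q-Exactive HF with no back-exchange correction, normalizing it to full-deuteration controls prepared for 24 h at 37 °C. The fit used a stretched single exponential with β = 0.8. The observed exchange rate constant kobs is defined as the rate from this fit.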

For the substance IACLDFSLQK, the “observed amide hydrogen exchange rate constant kobs” value came out at 0.000643.
As for IAIYELLFK, the figure is 0.000527; as for IDEPLEGSEDR, 0.00298.
As for IDFYFDENPYFENK, the figure is 0.00186.
The figure for IDNSQVESGSLEDDWDFLPPKK is 0.00156; for IDTIEIITDR it is 0.000965.
With IEDGNNFGVAVQEK, the “observed amide hydrogen exchange rate constant kobs” value was determined as 0.00127.
As for IEDLSQQAQLAAAEK, the figure is 0.0009.
The figure for IEDVTPIPSDSTR is 0.00154; for IEEELGSK it is 0.00244.
In the case of IETIEVMEDR, the “observed amide hydrogen exchange rate constant kobs” value came out at 0.00148.
As for IEVIEIMTDR, the figure is 0.00104.
As for IFGGLDMLAEK, the figure is 0.00145; as for IFGVTTLDIVR, 0.000765.
Take IFVGGLNPEATEEK: the “observed amide hydrogen exchange rate constant kobs” value came to 0.00108.
As for IGAEVYHNLK, the figure is 0.0019; as for IGEHTPSALAIMENANVLAR, 0.000813.
The figure for IGFPWSEIR is 0.000936.
The figure for IGLFGGAGVGK is 0.000762; for IGPLGLSPK it is 0.000838; for IHFPLATYAPVISAEK it is 0.000691.
Take IHPVSTMVK: the “observed amide hydrogen exchange rate constant kobs” value came to 0.000804.
As for IIAPPERK, the figure is 0.00142; as for IIDVVYNASNNELVR, 0.00138.
As for IILDLISESPIK, the figure is 0.000711.
As for IINEPTAAAIAYGLDK, the figure is 0.000776.
With IISSIEQK, the “observed amide hydrogen exchange rate constant kobs” value was found to be 0.00126.
The figure for IITLTGPTNAIFK is 0.000716; for IIWQFIK it is 0.000404.
The figure for IKGEHPGLSIGDVAK is 0.00174.
As for ILATPPQEDAPSVDIANIR, the figure is 0.00103; as for ILDSVGIEADDDRLNK, 0.0024.
ILEFFGLK: the “observed amide hydrogen exchange rate constant kobs” value came to 0.00112.
As for ILGLLDAYLK, the figure is 0.00089; as for ILQDGGLQVVEK, 0.000978; as for ILTFDQLALDSPK, 0.000724.
Turning to IMATPEQVGK, the “observed amide hydrogen exchange rate constant kobs” value came to 0.000917.
With IMNTFSVVPSPK, the “observed amide hydrogen exchange rate constant kobs” value was determined as 0.000631.
As for INISEGNCPER, the figure is 0.000833; as for IQLINNMLDK, 0.00081.
The figure for IREEYPDR is 0.00399; for IRYESLTDPSK it is 0.00212; for ISVVSTK it is 0.000812.
Turning to ISVYYNEATGGK, the “observed amide hydrogen exchange rate constant kobs” value was found to be 0.00138.
For the substance ITLPVDFVTADKFDENAK, the “observed amide hydrogen exchange rate constant kobs” value amounted to 0.0013.
As for IVEMSTSK, the figure is 0.00206; as for IWDLEGK, 0.00103; as for IWHHTFYNELR, 0.00224.
The figure for IYVDDGLISLQVK is 0.000841.
Turning to IYVGNLPPDIR, the “observed amide hydrogen exchange rate constant kobs” value is 0.00116.
For IYVLLR, the “observed amide hydrogen exchange rate constant kobs” value came to 0.000454.
As for KLEAAEER, the figure is 0.00257; as for KSDVEAIFSK, 0.000898.
Turning to LAAIAESGVER, the “observed amide hydrogen exchange rate constant kobs” value is 0.000919.
The figure for LAHEVGWK is 0.00169; for LAMQEFMILPVGAANFR it is 0.000775.
As for LAPITSDPTEATAVGAVEASFK, the figure is 0.000899.
As for LAVNMVPFPR, the figure is 0.000639.
In the case of LAYINPDLALEEK, the “observed amide hydrogen exchange rate constant kobs” value was found to be 0.00137.
The figure for LDGLVETPTGYIESLPR is 0.000897.
As for LDIDSPPITAR, the figure is 0.00107; as for LDNLVAILDINR, 0.00063; as for LEEDINSSMTNSTAASRPPVTLR, 0.00139.
As for LEEDISSSMTNSTAASRPPVTLR, the figure is 0.00131.
For the substance LFFLQVK, the “observed amide hydrogen exchange rate constant kobs” value is 0.00042.
Regarding LFIGGLNTETNEK, the “observed amide hydrogen exchange rate constant kobs” value was determined as 0.00144.
As for LFIGGLSFETTDDSLREHFEK, the figure is 0.00239; as for LFQECCPHSTDR, 0.00299.
The figure for LFVGGLK is 0.000811.
The figure for LGDVYVNDAFGTAHR is 0.00197; for LGEMWNNTAADDKQPYEK it is 0.00171; for LGEWVGLCK it is 0.000773.
For the substance LGFAGLVQEISFGTTK, the “observed amide hydrogen exchange rate constant kobs” value stood at 0.001.
Regarding LGGSAVISLEGKPL, the “observed amide hydrogen exchange rate constant kobs” value was 0.000716.
As for LGGSLADSYLDEGFLLDK, the figure is 0.00175.
The figure for LGIHEDSTNR is 0.00441; for LHFFMPGFAPLTSR it is 0.00112.
The figure for LIAPVAEEEATVPNNK is 0.00102; for LIDDMVAQVLK it is 0.000612.
Turning to LIINSLYK, the “observed amide hydrogen exchange rate constant kobs” value was 0.00064.
The figure for LILPHVDIQLK is 0.000852; for LISWYDNEFGYSNR it is 0.00164.
The figure for LLDVVHPAAK is 0.00126.
As for LLEPVLLLGK, the figure is 0.000574.
As to LLEVEHPAAK, the “observed amide hydrogen exchange rate constant kobs” value came out at 0.00188.
As for LLGELLQDNAK, the “observed amide hydrogen exchange rate constant kobs” value was found to be 0.000855.
The figure for LLIHQSLAGGIIGVK is 0.000892; for LLLPGELAK it is 0.000859; for LLLPWLEAR it is 0.00056.
As for LLQDFFNGK, the figure is 0.00068; as for LMDVGLIAIR, 0.000707; as for LMGLEALK, 0.000548.
The figure for LMIEMDGTENK is 0.00222; for LNEHFLNTTDFLDTIK it is 0.00161; for LNGTDPEDVIR it is 0.00197.
LNLVQR: the “observed amide hydrogen exchange rate constant kobs” value amounted to 0.000854.
As for LQAALDDEEAGGRPAMEPGNGSLDLGGDSAGR, the figure is 0.00232; as for LQAVEVVITHLAPGTK, 0.000819; as for LRQPFFQK, 0.00093.
On to LTDCVVMRDPASK, for which the “observed amide hydrogen exchange rate constant kobs” value was 0.000824.
The figure for LTGMAFR is 0.00159; for LTLHGLQQYYVK it is 0.000933.
As for LVIEEAER, the figure is 0.00116.
As for LVIITAGAR, the figure is 0.000717.
Regarding LVILANNCPALR, the “observed amide hydrogen exchange rate constant kobs” value was determined as 0.00112.
The figure for LVINGNPITIFQERDPSK is 0.000923; for LVKQELK it is 0.000709.
As for LVLVGDGGTGK, the figure is 0.000679; as for LVPGGGATEIELAK, 0.00089; as for LVPVGYGIK, 0.000648.
As for LVQAFQFTDK, the figure is 0.00109; as for LVQDVANNTNEEAGDGTTTATVLAR, 0.00155; as for LVQGSILK, 0.000721.
Turning to LWDLTTGTTTR, the “observed amide hydrogen exchange rate constant kobs” value turned out to be 0.00172.
As for LYQSAGGMPGGMPGGFPGGGAPPSGGASSGPTIEEVD, the “observed amide hydrogen exchange rate constant kobs” value stood at 0.00113.
The figure for MFVGGLSWDTSK is 0.00136; for MFVLDEADEMLSR it is 0.00164.
The figure for MGANSLER is 0.00212.
The figure for MINTDLSR is 0.000886; for MLVSGAGDIK it is 0.00135.
As to MTDQEAIQDLWQWR, the “observed amide hydrogen exchange rate constant kobs” value came out at 0.000842.
The figure for MVLVGDVK is 0.000602; for MVNHFIAEFK it is 0.00114.
As for MVVESAYEVIK, the figure is 0.000759.
The figure for NDLAVVDVR is 0.000939.
On to NFAFLEFR, for which the “observed amide hydrogen exchange rate constant kobs” value came to 0.00106.
As for NFSDNQLQEGK, the figure is 0.00213; as for NIEDVIAQGIGK, 0.00103.
As for NIGVDNPAAK, the figure is 0.0014; as for NIIHGSDSVESAEK, 0.00215; as for NIPGITLLNVSK, 0.000585.
